From patent US20210179726A1 (DINGFU BIOTARGET, published 2021)
Changes are numbered by the printed parent chain.

T1: hGITR-EGFP on HEK293 cells (human, UniProt Q9Y5U5 26-241)
T1 construct: EGFP fusion expressed on transfected HEK293 cells; also called human GITR
T1 sequence (looked up): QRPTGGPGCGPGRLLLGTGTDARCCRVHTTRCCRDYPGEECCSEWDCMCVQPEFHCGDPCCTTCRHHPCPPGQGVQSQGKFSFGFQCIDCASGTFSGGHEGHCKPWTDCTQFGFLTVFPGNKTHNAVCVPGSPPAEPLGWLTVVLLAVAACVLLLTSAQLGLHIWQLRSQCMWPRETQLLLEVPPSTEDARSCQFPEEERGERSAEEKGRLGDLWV

T2: hOX40-EGFP on HEK293 cells (human, UniProt P43489 29-277)
T2 construct: EGFP fusion expressed on transfected HEK293 cells; also called human OX40
T2 sequence (looked up): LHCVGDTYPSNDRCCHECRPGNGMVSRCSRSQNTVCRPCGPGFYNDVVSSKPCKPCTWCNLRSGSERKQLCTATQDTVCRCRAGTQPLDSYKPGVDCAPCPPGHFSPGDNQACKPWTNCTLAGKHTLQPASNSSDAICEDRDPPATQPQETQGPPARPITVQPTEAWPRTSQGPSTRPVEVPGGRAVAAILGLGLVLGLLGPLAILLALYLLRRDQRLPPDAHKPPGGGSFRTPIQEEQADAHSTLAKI

T3: hCD27-muFc (human; mouse, UniProt P26842 20-192)
T3 construct: range 1-192; Secreted from HEK293, Protein A purified; not shown: mouse IgG1-Fc (muFc), residues 98 to 324 of UniProt P01868
T3 sequence (looked up): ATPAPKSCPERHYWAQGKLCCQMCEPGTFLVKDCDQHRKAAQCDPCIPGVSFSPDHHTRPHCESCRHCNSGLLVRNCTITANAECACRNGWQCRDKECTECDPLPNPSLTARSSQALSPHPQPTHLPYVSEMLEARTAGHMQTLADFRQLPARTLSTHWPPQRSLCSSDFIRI

T4: hCD27-EGFP on HEK293 cells (human, UniProt P26842 20-260)
T4 construct: EGFP fusion expressed on transfected HEK293 cells; also called CD27-EGFP cells; cell surface CD27
T4 sequence (looked up): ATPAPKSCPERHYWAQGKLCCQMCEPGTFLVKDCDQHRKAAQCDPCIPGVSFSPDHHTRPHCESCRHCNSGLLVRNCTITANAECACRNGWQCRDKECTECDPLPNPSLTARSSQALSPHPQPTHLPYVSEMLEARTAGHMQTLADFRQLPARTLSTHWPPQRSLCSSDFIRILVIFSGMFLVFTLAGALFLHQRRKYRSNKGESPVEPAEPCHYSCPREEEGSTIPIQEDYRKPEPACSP

B1: m2E7 (antibody, human IgG1, V domains shown)
VH: EVQLQESGPELKKPGETVKISCKASGYTFTTYGMSWVKQAPGKGLQWMGWINTNSGVPTYVEDFKGRFAFSLESSANTAYLQINNLKNEDTAIYFCTREGDALDYWGQGTSVTVSS
VL: DIVMTQSTAIMSASPGEKVTMTCSASSSVSYMHWYQQKSGTSPRRWIYDTSRLASGVPARFSGSGSGTSYSLTISSMEAEDAATYYCQQWSNTPPFTFGAGTKLELK
notes: also called clone 2E7; not shown: human IgG1 constant region, UniProt P01857
B2: m2B8 (antibody, human IgG1, V domains shown)
VH: EVQLQESGGGLVQPKGSLKLSCAASGFNFNTYTMNWVRQAPGKGLEWVARIRYKSNNYATYYADSVKDRFTISRDDSESILYLQMNNLRTDDTAIYFCVRELGLWYFDVWGAGTTVTVSS
VL: DIVMTQSPSYLAASPGETITINCRASKSISKYLAWYREKPGKTNNLLIYSGSTLQSGIPSRFSGSGSGTDFTLTISSLEPEDFAMYYCQQHNEYPLTFGAGTKLELK
notes: Chimeric antibody: mouse VH/VL on human IgG1 / human kappa constant regions; also called clone 2B8; not shown: human IgG1 constant region, UniProt P01857
B3: m1A8 (antibody, human IgG1, V domains shown)
VH: EVQLQESGAELVKPGASVKLSCKASGYSFTSSWMHWVKQRPGQGLEWIGMIHPDSGFTNYNEKFKSKATLTVDKSSSTAYMRLSSLTSEDSAVYYCARTSYYDTSYTSMDFWGQGNSVTVSS
VL: DIVLTQSPAILSVSPGERVSFSCRASQSIGTSIHWYQQRTNGSPRLLIKYASESISGIPSRFSGSGSGTDFTLSINSVESEDIADYYCQQSNSWPLTFGAGTKLELK
notes: Chimeric antibody: mouse VH/VL on human IgG1 / human kappa constant regions; also called clone 1A8; not shown: human IgG1 constant region, UniProt P01857
B4: m4H3 (antibody, human IgG1, V domains shown)
VH: QVQLQQSGPELVKPGASVKISCKASGYSFTAYNINWVKQTNGKSLEWIGIINPNYGTTSYNQKFKGKATLTVDQSSSTAYMQLNSLTSEDSAVYYCARRNGDYVGYAMDSWGQGTSVTVSS
VL: B3 VL with I33M, T40K, S91T, S93N, L96W, A100G, L106F
notes: Chimeric antibody: mouse VH/VL on human IgG1 / human kappa constant regions; also called clone 4H3; not shown: human IgG1 constant region, UniProt P01857
B5: m4G1 (antibody, human IgG1, V domains shown)
VH: QVQLQQSGPELVKPGASVKISCKASGYSFTAYNMNWVKQSKGKSLEWIGLINPNYATTSYNQKFKDKATLTVDQSSSTAYMQLNSLTSEDSAVYYCAYYSYYSYGGGYAMDYWGQGTSVTVSS
VL: B3 VL with V3L, T72I, L96W, A100G, K103R, L106I
notes: Chimeric antibody: mouse VH/VL on human IgG1 / human kappa constant regions; also called clone 4G1; not shown: human IgG1 constant region, UniProt P01857
B6: d16647 (antibody, human IgG1, V domains shown, not shown: a dimerising Fc or GST)
VH: QVELRESGGGLVKPGGSLRLSCAASGFTFSSYAMSWVRQTPDKGLEWVAIIGDGDTYTYYPDSVKGRFTISRDNSKNRLYLQMNDLKSEDTAMYYCVRTRGGPFDYWGQGTTLTVSS
VL: EILLTQSPAFMSATPGEKVTITCSASSSVGSMHWYQQKSGQSPRRLIYDTSKLASGVPDRFSGSGSGTDYTLTISSLEAEDAATYYCQQWSSIPPTFGAGTTLELK
notes: Humanized m2F11, human IgG1 / kappa
B7: 9424 (antibody, human IgG1, V domains shown, not shown: a dimerising Fc or GST)
VH: B6 VH with Q1E, E3H, R5Q, D42E, S75A, R78T, D85S
VL: B6 VL
notes: as for B6
B8: d14822 (antibody, human IgG1, V domains shown, not shown: a dimerising Fc or GST)
VH: B6 VH with Q1E, E3H, R5Q, R78T
VL: B6 VL
notes: as for B6
B9: d12674 (antibody, human IgG1, V domains shown, not shown: a dimerising Fc or GST)
VH: B6 VH with Q1E, E3H, R5Q, T40A, D42G
VL: B6 VL
notes: as for B6
B10: 16647 (antibody, human IgG1, V domains shown, not shown: a dimerising Fc or GST)
VH: B6 VH with T40M, D42G, D85S
VL: B6 VL
notes: as for B6

Each binder was assayed against T1, hGITR-EGFP on HEK293 cells (assay: FACS on hGITR-EGFP HEK293 cells).
Experimental: (§1) The hCD137-EGFP, hOX40-EGFP and hGITR-EGFP cells as described in Example 1 were washed twice in PBS, 10 μg/ml of each chimeric antibody as prepared in Example 3 (m2E7, m2B8, m4H3, m3E7, m1A8, m4G1, m2G3, m2F11 and m3B8) was added to each type of cells and incubated at 4° C. for 30 min. Then it was washed twice with PBS, anti-human Ig-APC (Jackson ImmunoResearch Laboratories, Cat #109-135-098) was added and were incubated at 4° C. for 30 min, washed twice with PBS and resuspended in 300 μl PBS. In FIG. 2, NC represents negative control (PBS), a-hlg-APC represents secondary antibody only, the other panels represent results obtained with each of the corresponding clone, respectively.

Row | Binder | binding result
1 | B1 | no binding (tested: 10 µg/ml)
2 | B2 | no binding (tested: 10 µg/ml)
3 | B3 | no binding (tested: 10 µg/ml)
4 | B4 | no binding (tested: 10 µg/ml)
5 | B5 | no binding (tested: 10 µg/ml)

The binders below were run against T2, hOX40-EGFP on HEK293 cells (assay: FACS on hOX40-EGFP HEK293 cells).
Experimental: as §1

Row | Binder | binding result
6 | B2 | no binding (tested: 10 µg/ml)
7 | B3 | no binding (tested: 10 µg/ml)
8 | B4 | no binding (tested: 10 µg/ml)
9 | B5 | no binding (tested: 10 µg/ml)

These binders were tested against T5, hCD137-EGFP on HEK293 cells (human, UniProt Q07011 24-255) (assay: FACS on hCD137-EGFP HEK293 cells).
T5 construct: EGFP fusion expressed on transfected HEK293 cells; also called human CD137
Experimental: as §1

T5 sequence (Q07011 24-255): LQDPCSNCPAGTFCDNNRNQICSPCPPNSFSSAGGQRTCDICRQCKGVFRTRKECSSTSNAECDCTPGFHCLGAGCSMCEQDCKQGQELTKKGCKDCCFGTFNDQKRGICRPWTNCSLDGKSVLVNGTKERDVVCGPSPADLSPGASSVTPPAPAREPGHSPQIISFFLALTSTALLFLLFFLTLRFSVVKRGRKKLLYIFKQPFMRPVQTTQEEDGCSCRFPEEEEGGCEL

Row | Binder | binding result
10 | B2 | no binding (tested: 10 µg/ml)
11 | B3 | no binding (tested: 10 µg/ml)
12 | B4 | no binding (tested: 10 µg/ml)
13 | B5 | no binding (tested: 10 µg/ml)

What follows are binders tested against T3, hCD27-muFc (assay: ELISA, plate coated with hCD27-muFc, Test 1).
Experimental: (§2) The ELISA plate was coated with 2 μg/ml hCD27-muFc, 100 μl/well and incubated at 4° C. overnight. Then it was washed once with 10 mM, pH 7.4 PBS/Tween (0.05%), blocked with PBST containing 5% skimmed milk powder and incubated at 37° C. for 2 h. After washing the plate for 4 times, the humanized antibodies were added and incubated at 37° C. for 40 min, then it was washed for 4 times. Anti-human IgG-HRP-conjugated secondary antibody (Sigma, Cat #A0170-1M) was added and incubated at 37° C. for 40 min. After washing, the plate was developed with TMB substrate and spectrophotometric analysis was performed at OD₄₅₀. In FIGS. 5A-5B, each curve represents the binding result obtained for one of the humanized antibodies. From the results, it can be seen that all these humanized antibodies could bind to human CD27.

Row | Binder | EC50 [mg/L]
14 | B6 | 0.0376

Each binder was assayed against T3, hCD27-muFc (assay: ELISA, plate coated with hCD27-muFc, Test 2).
Experimental: as §2

Row | Binder | EC50 [mg/L]
15 | B7 | 0.0342
16 | B8 | 0.0339
17 | B9 | 0.0424
18 | B10 | 0.0445

Each binder was assayed against T3, hCD27-muFc (assay: BLI (Octet K2), antibody on Protein A biosensor, hCD27-muFc in solution).
Experimental: Using the BLI method, each humanized antibody was immobilized on a Protein A biosensor at a concentration of 10 μg/ml, while hCD27-muFc was subjected to 2-fold serial dilution, starting from 100 nM, to obtain 5 gradient dilutions for each antibody. The reaction plate was placed on the Octet K2 instrument. The parameters were set to Baseline 70 s, Association 80 s, Dissociation 300 s, Baseline 260 s, Loading 40 s, and Custom 5 s.

Row | Binder | Kd [nM] | koff [s⁻¹] | kon [M⁻¹ s⁻¹]
19 | B7 | 7.02 | 0.000396 | 56500
20 | B8 | 4.27 | 0.000334 | 78200
21 | B6 | 3.05 | 0.000281 | 92100
22 | B9 | 5 | 0.000447 | 89400
23 | B10 | 4.86 | 0.000348 | 71500

The binders below were run against T2, hOX40-EGFP on HEK293 cells (assay: FACS dot plot on OX40-EGFP HEK293 cells, anti-human Ig-APC secondary).
Experimental: as §1

Row | Binder | binding result
24 | B1 | no binding (tested: 10 µg/ml)

Each binder was assayed against T5, hCD137-EGFP on HEK293 cells (assay: FACS dot plot on CD137-EGFP HEK293 cells, anti-human Ig-APC secondary).
Experimental: as §1

Row | Binder | binding result
25 | B1 | no binding (tested: 10 µg/ml)

These binders were tested against T4, hCD27-EGFP on HEK293 cells (assay: FACS titration on CD27-EGFP HEK293 cells, 8 three-fold dilutions from 20 µg/ml, anti-human Ig-APC secondary, MFI; table drawn under the plot, unit from the x axis; no upper plateau reached).
Experimental: Based on the above results of ELISA, 7 humanized antibodies were selected to examine their affinities to cell surface CD27. Briefly, 5×10⁵ CD27-EGFP cells prepared in Example 1 were washed twice in PBS, each of the humanized antibodies (d16647, d12996, d9419, 14822, 9424, d14822, d12674) was added. The antibodies were subjected to 3-fold serial dilution, starting from 20 μg/ml, to obtain 8 gradient dilutions for each antibody. The antibodies and the cells were incubated at 4° C. for 30 min. Then, it was washed twice with PBS, anti-human Ig-APC (Jackson ImmunoResearch Laboratories, Cat #109-135-098) was added, and incubated at 4° C. for 30 min, washed twice with PBS and resuspended in 300 μl PBS. Flow cytometry was then performed, and the results are shown in FIG. 6. m2F11 was used as a control.

Row | Binder | LogEC50
26 | B7 | 0.546 Log10(ug/ml)
27 | B8 | 0.373 Log10(ug/ml)
28 | B6 | 0.601 Log10(ug/ml)
29 | B9 | 0.635 Log10(ug/ml)
